Assays:
[1] = Recovery of ATRA and conjugate in plasma and lung tissue after intratracheal instillation in male rats; assay type: in vivo, Sprague Dawley Rats
Protocol: The following study in rats was conducted to determine plasma and lung tissue concentrations of non-PEGylated all-trans retinoic acid (ATRA control) versus a PEGylated all-trans retinoic acid, mPEG (5 kD)ATRA Ester Conjugate, after intratracheal instillation to male rats.
Animals: Hilltop Lab Animals Inc (P.O. Box 183, Scottdale, Pa. 15683) supplied pre-cannulated jugular vein catheter [JVC]) Sprague Dawley Rats (350-375 grams). The test system included 2 male rats randomly chosen for each of the 6 test groups.
ATRA and PEG-ATRA Samples: Non-PEGylated All-Trans Retinoic Acid was supplied as a powder containing 50% ATRA by weight (Control Article). The powder was stored at −20° C. and protected from light. Methoxy PEG (5 kD) ATRA ester conjugate (Test Article) was provided as a powder containing 5% ATRA by weight which was stored at −20° C. and protected from light.
ATRA Stock Solution/Control (2.0 mg/ml Stock): 3.0 mL of PBS was added to 6.0 mg of the ATRA powder. This solution was dosed as a suspension to the rats after sonication and vortexing.
Methoxy PEG (5 kD) ATRA ester conjugate (20.0 mg/mL Stock): 3.0 mL of PBS was added to 60.0 mg of the methoxy PEG (5 kD) ATRA ester conjugate powder.
Intratracheal Instillation: Administration of the control and test articles was achieved by intratracheal instillation under yellow lighting. The rats were lightly anesthetized using inhaled 3.0-5.0% isoflurane mixed with oxygen in a plexiglass anesthesia chamber. The dose was administered by inserting a gavage needle fitted with a 1 mL syringe into the mouth of the rat down the trachea to just above the carina. The dose was administered into the lungs utilizing this method, and then the gavage needle was removed. The animal was placed back in its cage and allowed to recover from the anesthesia on its own after the dosing procedure.
Rats were dosed IT with 354 μg (1.2 μmole) of RA or […] (1 μmole) ATRA equivalent of mPEG5K-ATRA.
Blood Collection: Predose blood samples of approximately 3.0 ml were collected from the jugular vein catheter into heparinized plasma tubes. At the designated sacrifice time for each animal a surgical plane of anesthesia was induced by using inhaled 3.0-5.0% isofluorane mixed with oxygen. […]
ATRA and PEG-ATRA were extracted from whole rat lung by first weighing and transferring the rat lung to an amber vial and cutting the lung into small pieces. […] The sample was then analyzed by HPLC.
Sample Analysis: Plasma and lung tissue samples were analyzed for all-trans retinoic acid concentrations by reverse-phase high performance liquid chromatography (HPLC) procedures for the lung tissue and by a liquid chromatography tandem mass spectrophotometer (LC-MS-MS) technique for the plasma samples. […]

[2] = Hydrolysis rate of PEG-ATRA ester conjugate in phosphate buffer; assay type: physicochemical; settings: phosphate buffer 0.1M, pH 7.0, 0.5 wt %, pseudo-first-order kinetics
Protocol: The rate of hydrolysis in buffer of an exemplary PEG-ATRA conjugate in accordance with the invention was determined at two different temperatures, room temperature and body temperature.
MPEG 5 kDa ATRA (see Example 1) was dissolved in phosphate buffer (0.1M, pH 7.0) at a concentration of 0.5 wt % at temperatures of 23° C. and 37° C. At timed intervals, aliquots were removed for analysis by analytical reverse phase HPLC. The hydrolysis half-lives were obtained using pseudo-first-order kinetics. […] Thus, these conjugates can be characterized as water-soluble prodrugs forms of the retinoid.

[3] = Stability (degradation) of PEG-retinoid compositions versus unmodified parent retinoid; assay type: physicochemical; settings: without free radical scavenger
From the text: Additionally, a composition in accordance with the invention will preferably contain a free radical scavenger such as butylatedhydroxytoluene (BHT), ascorbic acid (vitamin C), or alpha tocopherol […]. […] Incorporation of a free radical scavenger in the composition was effective to substantially reduce or effectively eliminate free-radical induced degradation of the conjugate.

| concentration at 1 h ([1]; male, Sprague Dawley, other: intratracheal instillation, 354 μg, rat plasma, one-hour timepoint, LC-MS-MS, read-out: plasma retinoic acid (ATRA) concentration) [ng/mL] | retention in the lung compared with pegylated / unmodified counterpart ([1]; rat, lung tissue (FIG. 3)) | Compound | half-life (t 1/2) of the hydrolysis ([2]; 23° C.) | half-life (t 1/2) of the hydrolysis ([2]; 37° C.) | plasma retinoic acid (ATRA) concentration ([1]; rat plasma, one-hour timepoint, LC-MS-MS) | retained in the lung ([1]; rat, for at least up to 2 hours post administration, HPLC of lung tissue) | stability of the composition relative to compositions of the unmodified parent retinoid [3] |
| --- | --- | --- | --- | --- | --- | --- | --- |
| ~145 | to a lesser degree | CC1=C(/C=C/C(C)=C/C=C/C(C)=C/C(=O)O)C(C)(C)CCC1 [ATRA, all trans retinoic acid, reference compound] | – | – | – | – | – |
| – | – | mPEG (5 kDa) ATRA Ester Conjugate [Example 1] | about 3500 hours | about 877 hours | approximately 65 ng/ml | greater than 70 % of the dose | more prone to degradation |
